Columns and labels:
[1] = target: T1, hCMV glycoprotein B (gB; HEK293T transfectant) (hCMV, UniProt P06473 32-906); test: cell-based or functional assay
[2] = target: T1, hCMV glycoprotein B (gB; HEK293T …); test: cell competition; competitor 2B11-biotin
[3] = target: T1, hCMV glycoprotein B (gB; HEK293T …); test: cell competition; competitor 5F1-biotin
[4] = target: T1, hCMV glycoprotein B (gB; HEK293T …); test: cell competition; competitor 6B4-biotin
[5] = target: T1, hCMV glycoprotein B (gB; HEK293T …); test: cell competition; competitor 10C6-biotin
[6] = target: T1, hCMV glycoprotein B (gB; HEK293T …); test: cell-based or functional assay; remark: listed apart in the source
[7] = target: T1, hCMV glycoprotein B (gB; HEK293T …); test: cell competition; competitor 4H9-biotin
[8] = target: T1, hCMV glycoprotein B (gB; HEK293T …); test: cell-based or functional assay; remark: listed apart in the source
[9] = target: hCMV gB E361K + D362N (virus selected with 7H3 in fibroblasts) (hCMV); test: cell-based or functional assay
[10] = target: T1, hCMV glycoprotein B (gB; HEK293T …); test: cell-based or functional assay; remark: listed apart in the source
[11] = target: hCMV gB E381 deletion (virus selected with 7H3 in epithelial cells) (hCMV); test: cell-based or functional assay
[12] = target: T1, hCMV glycoprotein B (gB; HEK293T …); test: cell-based or functional assay; remark: listed apart in the source
[13] = target: T2, soluble gB ectodomain expressed in a mammalian cell line (hCMV, UniProt P06473 32-750); test: ELISA, soluble gB ectodomain; ELISA on soluble gB ectodomain (4I22 was measured by Biacore on the 5-member complex)
T2 construct: extracellular domain

[14] = target: T1, hCMV glycoprotein B (gB; HEK293T …); test: cell competition; competitor 7H3-biotin
[15] = target: T1, hCMV glycoprotein B (gB; HEK293T …); test: cell-based or functional assay; remark: listed apart in the source
[16] = target: T3, hCMV gM + gN (HEK293T co-transfectant) (hCMV, UniProt P16733 1-372; P16795 22-138); test: cell-based or functional assay
T3 sequence 1: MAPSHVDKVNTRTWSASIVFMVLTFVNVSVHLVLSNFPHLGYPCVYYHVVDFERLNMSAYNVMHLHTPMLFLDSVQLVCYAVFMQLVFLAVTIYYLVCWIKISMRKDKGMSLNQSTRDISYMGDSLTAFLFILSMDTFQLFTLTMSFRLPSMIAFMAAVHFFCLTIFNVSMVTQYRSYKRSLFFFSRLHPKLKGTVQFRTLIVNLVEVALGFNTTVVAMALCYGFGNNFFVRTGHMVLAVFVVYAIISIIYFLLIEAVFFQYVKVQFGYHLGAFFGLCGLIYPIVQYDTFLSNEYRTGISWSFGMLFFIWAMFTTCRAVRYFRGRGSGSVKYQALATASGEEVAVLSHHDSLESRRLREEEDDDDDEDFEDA
T3 sequence 2: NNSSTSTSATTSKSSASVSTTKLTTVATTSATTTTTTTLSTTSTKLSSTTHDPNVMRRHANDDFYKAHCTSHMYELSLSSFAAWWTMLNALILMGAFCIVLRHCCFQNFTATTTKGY

[17] = target: T3, hCMV gM + gN (HEK293T co-transfectant); test: cell-based or functional assay; remark: listed apart in the source

T1 sequence (P06473 32-906 limits assumed): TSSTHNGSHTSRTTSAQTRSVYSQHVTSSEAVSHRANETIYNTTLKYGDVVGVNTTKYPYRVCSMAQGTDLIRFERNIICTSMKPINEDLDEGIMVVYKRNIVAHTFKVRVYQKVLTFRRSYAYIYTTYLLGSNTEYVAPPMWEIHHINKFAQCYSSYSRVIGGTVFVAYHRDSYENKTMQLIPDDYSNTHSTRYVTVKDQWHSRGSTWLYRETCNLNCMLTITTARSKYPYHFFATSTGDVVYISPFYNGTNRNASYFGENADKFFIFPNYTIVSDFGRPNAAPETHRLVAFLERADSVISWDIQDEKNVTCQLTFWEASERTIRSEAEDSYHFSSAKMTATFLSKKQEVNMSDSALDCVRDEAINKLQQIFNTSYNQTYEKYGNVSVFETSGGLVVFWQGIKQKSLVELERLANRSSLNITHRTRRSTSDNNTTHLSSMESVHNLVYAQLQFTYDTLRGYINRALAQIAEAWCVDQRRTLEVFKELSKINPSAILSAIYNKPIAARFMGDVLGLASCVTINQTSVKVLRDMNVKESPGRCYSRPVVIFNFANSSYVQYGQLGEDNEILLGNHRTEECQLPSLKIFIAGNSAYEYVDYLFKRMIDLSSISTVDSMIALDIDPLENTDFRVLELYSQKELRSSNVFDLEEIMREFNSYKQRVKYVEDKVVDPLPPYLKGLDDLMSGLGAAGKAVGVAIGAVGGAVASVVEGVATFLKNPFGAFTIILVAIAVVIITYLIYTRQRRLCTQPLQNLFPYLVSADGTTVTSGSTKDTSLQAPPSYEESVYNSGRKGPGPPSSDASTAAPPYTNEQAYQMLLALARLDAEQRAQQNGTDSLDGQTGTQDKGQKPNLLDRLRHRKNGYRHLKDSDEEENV
T2 sequence (P06473 32-750 limits assumed): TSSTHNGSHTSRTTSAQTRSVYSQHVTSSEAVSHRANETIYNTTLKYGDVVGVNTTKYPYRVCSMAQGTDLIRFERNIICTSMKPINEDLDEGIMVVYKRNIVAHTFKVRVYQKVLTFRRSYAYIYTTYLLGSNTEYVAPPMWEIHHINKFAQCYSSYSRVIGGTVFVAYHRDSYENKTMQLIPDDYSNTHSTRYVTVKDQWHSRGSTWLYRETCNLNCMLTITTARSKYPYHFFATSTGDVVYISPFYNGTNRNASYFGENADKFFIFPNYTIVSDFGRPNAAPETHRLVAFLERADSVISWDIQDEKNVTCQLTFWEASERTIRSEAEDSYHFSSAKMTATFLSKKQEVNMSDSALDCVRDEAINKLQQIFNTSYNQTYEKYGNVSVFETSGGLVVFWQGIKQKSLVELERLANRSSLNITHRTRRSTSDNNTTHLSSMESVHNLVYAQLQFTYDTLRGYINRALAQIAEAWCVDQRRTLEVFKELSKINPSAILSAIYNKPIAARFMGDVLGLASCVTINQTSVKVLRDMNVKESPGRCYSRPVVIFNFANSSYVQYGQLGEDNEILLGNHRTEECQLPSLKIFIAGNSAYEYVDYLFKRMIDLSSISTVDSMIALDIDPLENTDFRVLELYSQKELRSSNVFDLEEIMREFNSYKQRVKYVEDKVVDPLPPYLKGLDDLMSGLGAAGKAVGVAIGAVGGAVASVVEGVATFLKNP

B1: 7H3 (antibody, V domains shown)
VH: QVQLVQSGAEVKNPGASVKVSCKASGYTFTDYYIHWVRQAPGQGLEWMGWFNPNSGGTNFVQNFQGRVTMTRDTSISTAYMELSRLRSDDTAMYYCAKDSAKTASAYYGLNFFYYGMDVWGQGTTVTVSS
VL: QSVLSQPPSASGTPGQRVTISCSGSSSNIGKNYVYWYQQVPGTAPKLLMFKNNQRPSGVPDRFSGSKSGTSASLAISGLRSEDEADYYCSAWDGSLSRPLFGGGTKVTVL
notes: fully human IgG1 with unaltered Fc; also called 7H3-biotin; LJP538
- 50% neutralization VR1814, ARPE [1]: > 2 µg/mL
- 50% neutralization VR1814, MRC-9 [1]: ≤ 2 µg/mL
- Inhibition of binding (%) [2]: 0%
- Inhibition of binding (%) [3]: 0%
- Inhibition of binding (%) [4]: 0%
- Inhibition of binding (%) [5]: 0%
- 90% neutralization VR1814, ARPE [6]: 0.6 µg/mL
- 90% neutralization VR1814, MRC-9 [6]: 3 µg/mL
- Inhibition of binding (%) [7]: 0%
- neutralization of ARPE infection, isolate TM-20749 [8]: 4.36 µg/mL
- neutralization of ARPE infection, isolate TM-31354 [8]: 1.42 µg/mL
- neutralization of ARPE infection, isolate TM-E5271 [8]: 0.17 µg/mL
- neutralization of ARPE infection, isolate TM-E9361 [8]: 0.33 µg/mL
- neutralization of ARPE infection, isolate TM-E14953 [8]: 1.09 µg/mL
- neutralization of ARPE infection, isolate TM-E19664 [8]: 0.26 µg/mL
- neutralization of ARPE infection, isolate TM-E20744 [8]: 1.37 µg/mL
- neutralization of ARPE infection, isolate TM-E28175 [8]: 0.24 µg/mL
- neutralization of ARPE infection, isolate TM-E28257 [8]: 1.16 µg/mL
- fold increase in neutralization EC50 of escape virus [9]: > 41 fold
- EC50 inhibition of cell-cell fusion [10]: 4.77 µg/mL
- fold decrease in susceptibility of escape virus [11]: 22 fold
- EC90 neutralization HUVEC, isolate TM-20749 [12]: 1.18 µg/mL
- EC90 neutralization HUVEC, isolate TM-31354 [12]: 2.2 µg/mL
- EC90 neutralization HUVEC, isolate TM-E5271 [12]: 0.19 µg/mL
- EC90 neutralization HUVEC, isolate TM-E9361 [12]: 0.29 µg/mL
- EC90 neutralization HUVEC, isolate TM-E14953 [12]: 0.12 µg/mL
- EC90 neutralization HUVEC, isolate TM-E19664 [12]: 0.31 µg/mL
- EC90 neutralization HUVEC, isolate TM-E20744 [12]: 0.39 µg/mL
- EC90 neutralization HUVEC, isolate TM-E28175 [12]: 0.28 µg/mL
- EC90 neutralization HUVEC, isolate TM-E28257 [12]: 1.02 µg/mL
- Kd [13]: 0.29 nM
- Inhibition of binding (%) [14]: 100%
- 50% neutralization VR1814, BM-MSC [15]: 2 µg/mL
- 50% neutralization VR1814, Mo-DC [15]: 0.06 µg/mL

B2: 6L3 (antibody, V domains shown)
VH: EVRLEESGGGLVQPGGSLRLSCAASGFTVSTTYMAWVRQAPGKGLEWVSLIHTGGIFGVGGTSYADSVKGRFTISRDTSKNTVSLQMSSLRVEDTAIYFCAREHRGTIDAFDAWGQGTVVIVSS
VL: DIHMTQSPSSLSASVGDRVTITCRASQNIRNYLNWYQHKPGKAPKLLIYTTSRLQSGVPSRFSGSGSGTDFTLTVNSLQPEDFASYYCQQSYDGWTFGQGTKVEMK
- 50% neutralization VR1814, ARPE [16]: ≤ 2 µg/mL
- 90% neutralization VR1814, ARPE [17]: 10 µg/mL
- 90% neutralization VR1814, MRC-9 [17]: 30 µg/mL

— patent US20170296650A1 (Novartis, published 2017)
